Test [1] concerns the target strep-CsoS1A (hexameric shell protein) (Halothiobacillus neapolitanus) (UniProt P45689). The experiment in a line: native gel or EMSA; native 1% agarose protein gel (Tris-acetate-EDTA); proteins mixed in 50 mM Hepes, 150 mM NaCl, 30 min at room temperature; 2.5 μg CsoS1A or BSA, 8.4 μg CsoS2 or 3.5 μg MR variant (0.09 nmol); run 70 min at 60 V in 25 mM Tris, 200 mM glycine, pH 7.5; stained, quantified in FIJI. A general note: Mobility shift assays separate free from complexed probe on a gel.
Chain of UniProt P45689 (P45689 whole entry): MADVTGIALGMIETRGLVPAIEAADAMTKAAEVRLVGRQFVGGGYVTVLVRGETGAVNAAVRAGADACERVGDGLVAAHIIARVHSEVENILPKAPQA

The target is the same in test [2].

Bounds are passed on as bounds.

As for “6xHis-wtMR-strep (WT middle region of CsoS2, repeats 1 to 6) (domain or fragment)”, in test [1], the percent less mobility shift of shell than with full-length CsoS2 amounted to 25%.

In test [2], “6xHis-CsoS2B (full-length CsoS2, long form) (from UniProt O85041-1 1-869) (natural protein)” gave a turbidity with 9 μM CsoS1A, compared to wtMR (fold against wtMR) of 5. Besides, in test [1], the percent of shell bound and shifted from its control position is > 90%.

(Values after publication PMC11365436.)
